# Laboratory results reported in the supplement of paper PMC7125110.
# ± gives the standard error. Fewer inactive variants are shown than the library holds.
# B1: glmS ribozyme (parent)
# chain: AUAAAAGCGCCAGAACUACAGAAAUGUAGUUGACGAGGAGGAGGUUUAUCGAAUUUUCGGCGGAUGCCUCCAAA
# Experiments:
# Details in all cases: with glucosamine-6-phosphate
# glucosamine-6-phosphate [1] = variants of: B1; assay: self-cleavage kobs at 40 uM GlcN6P; higher = faster cleavage; RNA array
# Procedure, shortened: (§1)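 Barcoded glmS ribozyme variants on sequenced MiSeq chips were transcribed in situ by E. coli RNA polymerase and tracked through a hybridised Cy3 probe at 37 °C. Glucosamine-6-phosphate (40 μM to 10 mM) in HEPES/KCl/Mg(OAc)2 buffer was flowed in, and tiles were imaged over ~14 h. Signals were normalised to baseline and to non-cleaving reference variants; per-tile medians were fit to one- or two-exponential decays to give kobs. kcat and KM came from weighted Michaelis–Menten fits across concentrations.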
# glucosamine-6-phosphate [2] = variants of: B1; assay: self-cleavage kobs at 640 uM GlcN6P; higher = faster cleavage; RNA array
# Procedure, shortened: as §1
# glucosamine-6-phosphate [3] = variants of: B1; assay: self-cleavage kobs at 2500 uM GlcN6P; higher = faster cleavage; RNA array
# Procedure, shortened: as §1
# glucosamine-6-phosphate [4] = variants of: B1; assay: self-cleavage kobs at 10000 uM GlcN6P; higher = faster cleavage; RNA array
# Procedure, shortened: as §1
# glucosamine-6-phosphate [5] = variants of: B1; assay: self-cleavage kobs at 160 uM GlcN6P; higher = faster cleavage; RNA array
# Procedure, shortened: as §1
Variant,self-cleavage kobs at 40 uM GlcN6P (glucosamine-6-phosphate [1]),self-cleavage kobs at 640 uM GlcN6P (glucosamine-6-phosphate [2]),self-cleavage kobs at 2500 uM GlcN6P (glucosamine-6-phosphate [3]),self-cleavage kobs at 10000 uM GlcN6P (glucosamine-6-phosphate [4]),self-cleavage kobs at 160 uM GlcN6P (glucosamine-6-phosphate [5])
G29U A36U A52G,< 1e-05 s⁻¹,–,–,–,–
G59A G60U,< 1e-05 s⁻¹,< 1e-05 s⁻¹,< 1e-05 s⁻¹,< 1e-05 s⁻¹,–
G7C U57A,< 1e-05 s⁻¹,–,–,–,< 1e-05 s⁻¹
A14G G38U C50U,< 1e-05 s⁻¹,–,–,–,–
U45A U47G U57A,< 1e-05 s⁻¹,–,–,0.000108 ± 2.3e-05 s⁻¹,–
A42G G59A,< 1e-05 s⁻¹,–,4.78e-05 ± 2e-05 s⁻¹,–,–
G37U G51C C71U,< 1e-05 s⁻¹,< 1e-05 s⁻¹,–,< 1e-05 s⁻¹,< 1e-05 s⁻¹
A14U U47A,0.000141 ± 1.5e-05 s⁻¹,–,–,0.00513 ± 0.00047 s⁻¹,0.000575 ± 0.00028 s⁻¹
U31A C34U C71U,< 1e-05 s⁻¹,–,–,–,–
C11A G13C A53U C58G A64U U69A,7.02e-05 ± 2.7e-05 s⁻¹,–,–,–,–
A6C G9C,< 1e-05 s⁻¹,< 1e-05 s⁻¹,< 1e-05 s⁻¹,< 1e-05 s⁻¹,< 1e-05 s⁻¹
G9U G37A C67U C71G,< 1e-05 s⁻¹,–,–,–,–
A36C G63U,< 1e-05 s⁻¹,< 1e-05 s⁻¹,–,–,–
C8G U56C G62C,< 1e-05 s⁻¹,< 1e-05 s⁻¹,< 1e-05 s⁻¹,< 1e-05 s⁻¹,–
U31A G63U,< 1e-05 s⁻¹,< 1e-05 s⁻¹,< 1e-05 s⁻¹,< 1e-05 s⁻¹,< 1e-05 s⁻¹
A15C G38A C67G,< 1e-05 s⁻¹,–,–,–,–
A12U C34G,< 1e-05 s⁻¹,< 1e-05 s⁻¹,< 1e-05 s⁻¹,< 1e-05 s⁻¹,< 1e-05 s⁻¹
G9C C10U G37U,< 1e-05 s⁻¹,< 1e-05 s⁻¹,–,–,–
A12U C71A,0.000512 ± 5.5e-05 s⁻¹,0.00333 ± 0.00046 s⁻¹,0.0115 ± 0.0027 s⁻¹,0.0343 ± 0.0084 s⁻¹,0.0012 ± 0.00016 s⁻¹
C8G U65A,< 1e-05 s⁻¹,–,–,–,–
C8U A33C G44A C50G,< 1e-05 s⁻¹,< 1e-05 s⁻¹,< 1e-05 s⁻¹,–,–
A39C G44C U65C,< 1e-05 s⁻¹,–,–,–,–
G13C G60C,< 1e-05 s⁻¹,–,–,< 1e-05 s⁻¹,< 1e-05 s⁻¹
C16A C71U,5.08e-05 ± 8.3e-06 s⁻¹,0.000293 ± 3.5e-05 s⁻¹,0.000355 ± 5.3e-05 s⁻¹,0.00133 ± 0.00014 s⁻¹,0.000159 ± 3.6e-05 s⁻¹
C11U G44U,< 1e-05 s⁻¹,< 1e-05 s⁻¹,< 1e-05 s⁻¹,–,< 1e-05 s⁻¹
G51U A64G,< 1e-05 s⁻¹,–,< 1e-05 s⁻¹,–,< 1e-05 s⁻¹
G40U G41C A42G A52G U56G G60U,< 1e-05 s⁻¹,< 1e-05 s⁻¹,< 1e-05 s⁻¹,–,–

Variant,self-cleavage kobs at 40 uM GlcN6P (glucosamine-6-phosphate [1]),self-cleavage kobs at 640 uM GlcN6P (glucosamine-6-phosphate [2]),self-cleavage kobs at 2500 uM GlcN6P (glucosamine-6-phosphate [3]),self-cleavage kobs at 10000 uM GlcN6P (glucosamine-6-phosphate [4]),self-cleavage kobs at 160 uM GlcN6P (glucosamine-6-phosphate [5])
G41A C50G C61U,< 1e-05 s⁻¹,< 1e-05 s⁻¹,< 1e-05 s⁻¹,< 1e-05 s⁻¹,< 1e-05 s⁻¹
C11U G63U,< 1e-05 s⁻¹,–,< 1e-05 s⁻¹,< 1e-05 s⁻¹,–
C34G C50A A53G,< 1e-05 s⁻¹,–,–,–,–
A6U C11U G26U U56C,< 1e-05 s⁻¹,–,–,–,–
A33U G51U,< 1e-05 s⁻¹,–,–,–,< 1e-05 s⁻¹
A14U C50U G59C C70U,< 1e-05 s⁻¹,–,–,–,–
A15G U30A U31G G41U,0.00015 ± 5.1e-05 s⁻¹,–,–,0.000456 ± 0.00017 s⁻¹,–
G9A A12U C61A,< 1e-05 s⁻¹,–,–,–,–
G13C A52C,< 1e-05 s⁻¹,< 1e-05 s⁻¹,< 1e-05 s⁻¹,–,–
U47C A48C,< 1e-05 s⁻¹,–,–,–,< 1e-05 s⁻¹
G7C C16A U47C A53U,< 1e-05 s⁻¹,–,–,< 1e-05 s⁻¹,–
G32U C67U C70U,< 1e-05 s⁻¹,–,–,–,–
C16A A42C G66U,< 1e-05 s⁻¹,–,–,< 1e-05 s⁻¹,–
U54C U55C U65A,3.24e-05 ± 1.6e-05 s⁻¹,–,–,–,–
A15G G32C G41A C70A,< 1e-05 s⁻¹,–,–,–,–
U30G G44C,< 1e-05 s⁻¹,–,–,3.93e-05 ± 1.1e-05 s⁻¹,< 1e-05 s⁻¹
A12U A39G,0.00377 ± 0.00072 s⁻¹,0.0284 ± 0.013 s⁻¹,0.0119 ± 0.0036 s⁻¹,0.105 ± 0.045 s⁻¹,0.00677 ± 0.0016 s⁻¹
A6U A12C U56A G62A,< 1e-05 s⁻¹,–,–,–,–
C11G G44A,< 1e-05 s⁻¹,< 1e-05 s⁻¹,–,< 1e-05 s⁻¹,< 1e-05 s⁻¹
G13A G51A G62C,< 1e-05 s⁻¹,–,–,–,–
G41U C70G,0.00157 ± 0.00018 s⁻¹,0.00612 ± 0.00092 s⁻¹,0.00944 ± 0.0019 s⁻¹,0.0513 ± 0.014 s⁻¹,0.00262 ± 0.00038 s⁻¹
G43A G51C G63A C68U,< 1e-05 s⁻¹,–,–,–,–
A39C A42C C68G,< 1e-05 s⁻¹,–,–,–,–
U54A C68G C70U,8.05e-05 ± 2.2e-05 s⁻¹,–,–,–,–
U31A A52G C67G,6.56e-05 ± 1.9e-05 s⁻¹,–,–,9.04e-05 ± 1.2e-05 s⁻¹,–
C10U A39G C71A,< 1e-05 s⁻¹,–,–,–,–
A6C U49A G51U,< 1e-05 s⁻¹,–,–,< 1e-05 s⁻¹,–
